Among the data in patent CN111018973A are OD值 (450 nm, 参考630 nm) values, retold here.

The target in assay [1] is cTnI质控品重组抗原 (human) (UniProt P19429). Kind of assay: indirect ELISA, cTnI coated at 1 ug/ml, antibody 8 ng/ml, goat anti-mouse IgG-HRP. In general terms: In an ELISA, binding on a coated surface is turned into a signal by an enzyme label.
Assay [2] shares this target. Put plainly: indirect ELISA, cTnI coated at 1 ug/ml, antibody 40 ng/ml, goat anti-mouse IgG-HRP.
For assay [3] the target is unchanged. Put plainly: indirect ELISA, cTnI coated at 1 ug/ml, antibody 1.6 ng/ml, goat anti-mouse IgG-HRP.
Assay [4] has the same target. Put plainly: indirect ELISA, cTnI coated at 1 ug/ml, antibody 200 ng/ml, goat anti-mouse IgG-HRP.
Assay [5] shares this target. Put plainly: indirect ELISA, cTnI coated at 1 ug/ml, antibody 0.32 ng/ml, goat anti-mouse IgG-HRP.
Assay [6] has the same target. Put plainly: indirect ELISA, cTnI coated at 1 ug/ml, antibody 1000 ng/ml, goat anti-mouse IgG-HRP.
For assay [7] the target is unchanged. Kind of assay: indirect ELISA, cTnI coated at 1 ug/ml, antibody 0 ng/ml (blank, background), goat anti-mouse IgG-HRP.

UniProt P19429, sequence (P19429 whole entry): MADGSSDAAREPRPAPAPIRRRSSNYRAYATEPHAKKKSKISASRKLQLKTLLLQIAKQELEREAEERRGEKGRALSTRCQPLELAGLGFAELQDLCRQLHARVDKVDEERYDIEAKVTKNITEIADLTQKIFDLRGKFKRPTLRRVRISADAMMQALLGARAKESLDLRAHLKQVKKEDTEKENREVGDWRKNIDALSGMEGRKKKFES

B1: Anti-cTnI 8B6 重组抗体 (WT) (antibody, V domains shown)
VH: EVQLQQSGAELVKPGASVKLSCTASGFNIRDYYMHWMKQRTEQGLDWIGRIDPEEGETKYPPEFQGKATITADTSSNTAYLQLSTLTSEDTAVYYCARYYTSYIPFVYWGQGTLVTASA
VL: DVVMTQTPLSLSVSLGDQASISCRSTQSLLYSQRHTFLHWYLQKPGQSPKLLIFKISNKFSGVPDRFSGSGSGTDFTLKISRVEAEDLGVYFCSNSTHLPYTFGSGTKLEIKR
B1: the OD值 (450 nm, 参考630 nm) with cTnI质控品重组抗原 (human) [1] amounted to 1.47 OD; with cTnI质控品重组抗原 (human) [2] it was 1.85 OD; with cTnI质控品重组抗原 (human) [3], 0.227 OD; in the assay with cTnI质控品重组抗原 (human) [4], 1.91 OD; with cTnI质控品重组抗原 (human) [5] it was 0.086 OD; with cTnI质控品重组抗原 (human) [6], 2.03 OD. Moreover, the OD值 (450 nm, 参考630 nm) with cTnI质控品重组抗原 (human) [7] was found to be 0.062 OD.
